Assay results reported in patent US20110237779A1 (Genentech, published 2011).
Substitutions are numbered along the chain they refer to. Names may count otherwise.

B1: D3 direct hypervariable region graft on the acceptor human consensus framework (Fab displayed on phage) (Fab, V domains shown)
VH: EVQLVESGGGLVQPGGSLRLSCAASGFNIKDYYMHWVRQAPGKGLEWVGWIDPENGNTIYDPKFQDRFTISADTSKNTAYLQMNSLRAEDTAVYYCARDTAAYFDYWGQGTLVTVSS
VL: DIQMTQSPSSLSASVGDRVTITCKASRDIKSYLSWYQQKPGKAPKLLIYYATSLADGVPSRFSGSGSGTDFTLTISSLQPEDFATYYCLQHGESPFTFGQGTKVEIK
notes: Monovalent Fab-g3 phage display: light chain, and VH-CH1 followed by the minor phage coat protein P3; Kabat numbering; No framework changes; also called D3 grafted variant; D3 graft
B2: D3 library clone, CDR-L3 LSDGSSPFT (Fab, V domains shown)
VH: B1 VH
VL: B1 VL with Q90S, H91D, E93S
notes: Changes against the D3 direct graft (Kabat): VL Q90S, H91D, E93S; copies: 1 + 1

What was measured:
[1] = molecular target: T1, human tissue factor (human, UniProt P13726 33-251, limits assumed); assay: phage ELISA, Fab on phage, competition with antigen in solution
T1 construct: construct not described; also called TF

[2] = molecular target: T1, human tissue factor; assay: phage ELISA, solution competition: Fab-phage incubated with serially diluted TF, unbound phage captured on TF-coated wells; IC50 used as affinity estimate

Binder	IC50 [1] [nM]	IC50 [2] [nM]
B1	20	19
B2	–	15
